Key:
Raji = assay: ADCC activity in vitro (CytoTox 96 LDH assay), positive control cell line Raji; format: cell-based; conditions: effector normal human PBMC, E:T=100:1, 2.5 ug/mL, 4 hours
Flt3 protein = Flt3 protein (Homo sapiens, UniProt P36888); assay: Binding of hybridoma MAb to Flt3 protein and Flt3 expressing cells; conditions: recombinant and endogenous cells
From the text: MAbs to FLT3 were generated using VelocImmune® technology (Regeneron, Tarrytown, N.Y.) wherein genetically engineered mice make antibodies that have fully human variable regions and mouse constant regions. The MAb designated v62-1b21 (also known as AGS62.21) was generated after immunizing VelocImmune® mice with recombinant human FLT3 protein.

EOL-1 = EOL-1 cell growth with human FLT3 ligand and antibody (Cell Titer Glo, 5 days); format: cell-based; conditions: 50, 10 or 5 ng/mL, no antibody
Procedure: The ability of FLT3 antibodies (CHv62.21 and v62-1b37.1) to mediate the effect of human FLT3 ligand was evaluated using the human leukemia EOL-1 cell line, which endogenously expresses FLT3. Isotype control antibody (mLys-1c3.1) was also used. […] The next day, cells were treated with 50, 10 or 5 ng/mL of human FLT3 ligand (in 25 μl of complete media) and 10, 1, 0.1 and 0 μg/mL of test antibody (in 25 μl of complete media). Media alone was used as the untreated control. […] At the end of the incubation period, 100 μl of Cell Titer Glo was added to each well and incubated for 30 minutes, shaking, at room temperature.

RS-4-11 = format: cell-based, human
Procedure: Briefly, The RS-4-11 cells were seeded in 50 μl of complete media at a density of 3000 cells per well onto 96 well plates and placed in a tissue culture incubator at 37° C.; 5% CO2. The next day, the ADCs were prepared in complete media at 10 μg/mL and serially diluted 1:5 for a total of 9 points. […] At the end of the incubation period, 20 μl of Presto Blue was added to each well and incubated for 2 hours. The plates were read using a BioTek Synergy H4 plate reader using 540 Excitation and 590 Emission wavelengths and graphed using Graphpad Prism software.

## Rituximab
Raji
  ADCC activity: confirms ADCC activity

B1: v62-1b21: hybridoma FLT3 MAb from VelocImmune mice, fully human variable regions and mouse constant regions (antibody, V domains shown)
VH: EVQLVESGGGLVRPGGSLRLSCAASGFTFSGYSINWVRQAPGKGLEWVSSISSSSNYIYYADSVKGRFTISRDNAKNSLYLQMNSLRAEDTAVYYCAREGFIAGTTFDAFDIWGQGTMVTVSS
VL: DIQMTQSPSSLSASVGDRVTITCRASQGIRNDLGWYQQKPGKAPKRLIYAASSLQSGVPSRFSGSGSGTEFTLTISSLQPEDFATYYCLQHNGFPYTFGQGTKLEIKR
Flt3 protein
  binding to Flt3 protein and Flt3 expressing cells: specifically binds to Flt3 protein and Flt3 expressing cells

B2: Human FLT3 ligand: human FLT3 ligand, purchased from R and D Systems (protein)
chain: TQDCSFQHSPISSDFAVKIRELSDYLLQDYPVTVASNLQDEELCGGLWRLVLAQRWMERLKTVAGSKMQGLLERVNTEIHFVTKCAFQPPPSCLRFVQTNISRLLQETSEQLVALKPWITRQNFSRCLELQCQPDSSTLPPPWSPRPLEATAPTAPQPP
EOL-1
  effect of human FLT3 ligand alone on growth of EOL-1 cells: has no effect on growth

B3: v62-1b21.1-AGL-0129-08 (conjugate)
VH: B1 VH
VL: B1 VL
RS-4-11
  cytotoxicity: can induce cytotoxicity

Reference: patent publication US10751422B2, “Antibody drug conjugates (ADC) that bind to FLT3 proteins” (AGENSYS, INC., priority 2015, dated 2020)
